From paper PMC12720421, “Disordered N‐termini enhance the thermostability of SGNH‐hydrolase family polyesterases” (Protein Science : A Publication of the Protein Society, 2025)
Several values for one entry are separate records, joined by “and”; a condition that tells them apart may be missing. Identical values can stand only once.

What was measured:
[1] = system: CCCC(=O)Oc1ccc([N+](=O)[O-])cc1; assay: purified protein; type: biochemical, Maribacter thermophilus; conditions: 50 mM Tris pH 8.0, room temperature, 5% methanol, 0.05-0.1 μM enzyme
[2] = target: PpEST from Pseudomonas oleovorans (Pseudomonas oleovorans); assay: SEC; analytical SEC on a Superdex 200 Increase 10/300 GL column, with a BioRad Gel Filtration Standard; self-association of each purified esterase
Pmt_EST = target: T1, Pmt_EST (Zestomonas thermotolerans, UniProt Z9LQW2KWT1); assay: pNP release at […] nm, specific activity; type: biochemical; conditions: 50 mM Tris pH 8.5, 5% methanol
T1 sequence (Z9LQW2KWT1 41-245): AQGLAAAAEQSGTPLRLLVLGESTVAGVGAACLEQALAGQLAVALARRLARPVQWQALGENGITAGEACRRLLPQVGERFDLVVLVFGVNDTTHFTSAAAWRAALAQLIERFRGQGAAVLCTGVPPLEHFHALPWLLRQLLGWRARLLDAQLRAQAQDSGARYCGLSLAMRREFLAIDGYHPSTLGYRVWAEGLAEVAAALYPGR

Ft_EST = target: T2, Ft_EST (Fontimonas thermophila, UniProt A0A1I2JG86); assay: pNP release at […] nm, specific activity; type: biochemical; conditions: 50 mM Tris pH 8.5, 5% methanol
T2 construct: gene SAMN04488120_10748
T2 sequence (A0A1I2JG86 25-217): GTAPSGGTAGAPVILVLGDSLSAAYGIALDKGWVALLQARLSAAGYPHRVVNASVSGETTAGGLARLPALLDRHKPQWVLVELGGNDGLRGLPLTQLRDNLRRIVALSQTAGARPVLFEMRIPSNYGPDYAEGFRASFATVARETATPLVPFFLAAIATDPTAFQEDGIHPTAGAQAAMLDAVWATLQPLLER

[3] = target: Rp_EST from Rhodothermus profundi (Rhodothermus profundi); assay: SEC; analytical SEC on a Superdex 200 Increase 10/300 GL column, with a BioRad Gel Filtration Standard; self-association of each purified esterase
purified protein [4] = substrate: CCCC(=O)Oc1ccc([N+](=O)[O-])cc1; assay: purified protein; type: biochemical, Rhodothermus profundi; conditions: 50 mM Tris pH 8.0, room temperature, 5% methanol, 0.05-0.1 μM enzyme
purified protein [5] = substrate: CCCC(=O)Oc1ccc([N+](=O)[O-])cc1; assay: purified protein; type: biochemical, Ectopseudomonas oleovorans; conditions: 50 mM Tris pH 8.0, room temperature, 5% methanol, 0.05-0.1 μM enzyme
purified protein [6] = substrate: CCCC(=O)Oc1ccc([N+](=O)[O-])cc1; assay: purified protein; type: biochemical, Altericroceibacterium indicum; conditions: 50 mM Tris pH 8.0, room temperature, 5% methanol, 0.05-0.1 μM enzyme
purified protein [7] = substrate: CCCC(=O)Oc1ccc([N+](=O)[O-])cc1; assay: purified protein; type: biochemical, Chloracidobacterium thermophilum; conditions: 50 mM Tris pH 8.0, room temperature, 5% methanol, 0.05-0.1 μM enzyme

In the case of Mt_EST (Maribacter thermophilus), the Km [1] is reported as 453 ± 81 µM, the kcat [1] is reported as 54.4 ± 4.4 s⁻¹ and the kcat/Km [1] is reported as 120000 M⁻¹ s⁻¹.

Molecule “PpEST from Pseudomonas oleovorans (enzyme)” has a stoichiometry N [2] of 2.

CCCC(=O)Oc1ccc([N+](=O)[O-])cc1 [pNP-butyrate] was tested, and the “pNP release at 410 nm, specific activity” value (Pmt_EST) was “showed a clear preference for mid‐chain length esters, particularly pNP‐butyrate (C4)” and the “pNP release at 410 nm, specific activity” value (Ft_EST) was “showed a clear preference for mid‐chain length esters, particularly pNP‐butyrate (C4)”.

In the case of “Rp_EST from Rhodothermus profundi (enzyme)”, the stoichiometry N [3] is reported as 2 and 4.

B1: shRp_EST (Rhodothermus profundi) (protein)
chain: ITVLVLGNSLAAGYGLSPDEAFPAILQRKVDSLGWPVRILNAGLSGETSAGGLRRIDWLLRERIDVLILELGANDGLRGIDPEVTRQNLQGIIDKVRARYPEADIILAGMQLPPNLGPAYTAAFRALYPELARANNAYLIPFLLEGVGGVPELNQADGIHPTAEGQRIVAENVWRVLRPVLERRLGLA
notes: N-terminal extension truncated to align with AlinE4 and PpEST (borders not in main text), C-terminal 6xHis tag, E. coli, monomer
Molecule B1 has a Km (purified protein [4]) of 257 ± 43 µM, a kcat (purified protein [4]) of 25 ± 1.6 s⁻¹ and a kcat/Km (purified protein [4]) of 97000 M⁻¹ s⁻¹.

B2: PpEST (Ectopseudomonas oleovorans CECT 5344) (protein)
chain: GTLLVVGDSISAAFGLDSRQGWVALLEKRLSEEGFEHSVVNASISGDTSAGGAARLSALLAEHKPELVIIELGGNDGLRGQPPAQLQQNLASMVEQSQQAGAKVLLLGMKLPPNYGVRYTTAFAQVFTDLAEQKQVSLVPFFLEGVGGVPGMMQADGIHPAEAAQEILLDNVWPTLKPML
Molecule B2 has a Km (purified protein [5]) of 242 ± 49 µM, a kcat (purified protein [5]) of 14 ± 1 s⁻¹ and a kcat/Km (purified protein [5]) of 58000 M⁻¹ s⁻¹.

B3: Rp_EST (Rhodothermus profundi) (protein)
chain: QDTSKSSASSSEGSPDTTAKTPTHAARAAQPITVLVLGNSLAAGYGLSPDEAFPAILQRKVDSLGWPVRILNAGLSGETSAGGLRRIDWLLRERIDVLILELGANDGLRGIDPEVTRQNLQGIIDKVRARYPEADIILAGMQLPPNLGPAYTAAFRALYPELARANNAYLIPFLLEGVGGVPELNQADGIHPTAEGQRIVAENVWRVLRPVLERRLGLA
B3 gave a Km (purified protein [4]) of 246 ± 72 µM, a kcat (purified protein [4]) of 12 ± 1.3 s⁻¹ and a kcat/Km (purified protein [4]) of 49000 M⁻¹ s⁻¹.

B4: AlinE4 (Altericroceibacterium indicum) (protein)
chain: SMGESRVILAFGDSLFAGYGLDKGESYPAKLETALRSHGINARIINAGVSGDTTAAGLQRIKFVLDSQPDKPELAIVELGGNDLLRGLSPAEARQNLSGILEELQRRKIPILLMGMRAPPNLGAKYQREFDGIYPYLAEKYDAKLVPFFLEAVADRPDLIQKDHVHPTARGVEELVSATSNAVAKALPAKK
B4 was tested, and the Km (purified protein [6]) was 194 ± 55 µM, the kcat (purified protein [6]) was 15 ± 1.4 s⁻¹ and the kcat/Km (purified protein [6]) was 77000 M⁻¹ s⁻¹.

B5: Ct_EST (Chloracidobacterium thermophilum B) (protein)
chain: GGCSRTGTEAPENLPVLAPAPTDAAPTARPRIVVLGDSLTAGFGLPREASYPTVLQKKLDAAGLNYQVINAGISGDTSAGGVERLDWSLDGDVRIVILALGANDGLRGLPLTQMEANLRTIIERARARGAQVILAGLKAPAEAGPDYGAQFEAVYRKLAQQYRLPLIPSLLEGVAGREELNQEDGIHPNARGAAIVADNVWKVLEPVARQQLAQSQSNPDAPPAAKPAGAR
With B5 the Km (purified protein [7]) was 791 ± 178 µM, the kcat (purified protein [7]) was 38.5 ± 4.8 s⁻¹ and the kcat/Km (purified protein [7]) was 49000 M⁻¹ s⁻¹.

B6: shCt_EST (Chloracidobacterium thermophilum B) (protein)
chain: TARPRIVVLGDSLTAGFGLPREASYPTVLQKKLDAAGLNYQVINAGISGDTSAGGVERLDWSLDGDVRIVILALGANDGLRGLPLTQMEANLRTIIERARARGAQVILAGLKAPAEAGPDYGAQFEAVYRKLAQQYRLPLIPSLLEGVAGREELNQEDGIHPNARGAAIVADNVWKVLEPVARQQLAQSQSNPDAPPAAKPAGAR
notes: as for B1
Molecule B6 has a Km (purified protein [7]) of 646 ± 139 µM, a kcat (purified protein [7]) of 33.3 ± 3.7 s⁻¹ and a kcat/Km (purified protein [7]) of 52000 M⁻¹ s⁻¹.
